US6362319B1, “Glial cell line-derived neurotrophic factor” (Amgen Inc., priority 1991, dated 2002)

Key:
[1] = tested on: dopaminergic neurons in rat embryo (E16) mesencephalic cell cultures; experiment: Bioassay for dopaminergic neurotrophic activity: 3H-dopamine uptake in dissociated mesencephalic cell cultures; format: cell-based; conditions: for SP. ACT (specific activity, dopamine uptake trophic units per protein): TU = reciprocal of dilution giving 50% of maximal stimulation of 3H-DA uptake; for FOLD (specific activity relative to B49 conditioned medium): purification fold over CM; for BIOACTIVITY: total trophic units at purification step; for ED50 for increasing dopamine uptake: rat embryo (E16) mesencephalic culture
Experimental: The dopaminergic activity of the GDNF is used to facilitate the purification process. […] Briefly, cultures of dissociated mesencephalic cells are prepared, either in serum rich or serum free environments. Samples to be tested for dopaminergic activity are desalted and serially added to the cell cultures and the dishes are incubated for 6 days at 37° C. in a humidified atmosphere containing 6.5% CO2. The cultures, in the presence of the testing material, are then incubated at 37° C. with tritiated dopamine (^3H-DA). The dopamine uptake is halted, the cells washed, and the dopamine uptake analyzed by scintillation counting of retained tritium in the cultures.
Culture conditions: Dissociated mesencephalic cell cultures were prepared as previously described (Friedman and Mytilineou 1987 Neurosci. Lett. 79:65-72), with minor modifications. Briefly, rostral mesencephalic tegmentum from brains of Sprague-Dawley rat embryos, at the 16th day of gestation, were dissected under the microscope in sterile conditions, collected in Ca^2+- and Mg^2+-free Dulbecco's phosphate buffered saline (Gibco, Gaithersburg, Md.) and dissociated mechanically by mild trituration. The cells were plated in 100 μl per well onto 16-mm diameter tissue culture wells (Falcon, Lincoln Park, N.J., 24-well plate) containing 400 μl medium to give a density of 2.5-3.5×10^5 cells per well. The culture wells had been previously exposed to 0.1 mg/ml solution of poly L-ornithine in 10 mM sodium borate, pH 8.4, for 3 hours at 37° C., washed 3 times in milli-Q H2O and once in Earle's balanced salt solution (Gibco). The feeding medium (10/10) consisted of minimal essential medium (MEM, Gibco) supplemented with glucose (33 mM), sodium bicarbonate (24.5 mM), glutamine (2 mM), HEPES (15 mM), penicillin G (5 U/ml), streptomycin (5 μg/ml), 10% heat-inactivated fetal calf serum (Gibco) and 10% heat inactivated horse serum (Gibco). The cultures were kept at 37° C. in a water-saturated atmosphere containing 6.5% CO2. After 3 hours, when most of the cells had adhered to the bottom of the well, the medium was replaced with 500 μl of fresh medium. At this time, a serial dilution of the sample to be assayed for GDNF activity was added to each well in duplicate and the plates were incubated in the 37° C. incubator. After a week, the cultures were treated for 24 hours with fluorodeoxyuridine (13 μg/ml) and uridine (33 μg/ml) to prevent excessive glial proliferation and subsequently fed with the above medium without fetal calf serum. The feeding medium was changed weekly.
Alternatively, chemically defined serum-free medium was used in which serum was replaced by a mixture of proteins; hormones and salts. The defined medium (DM) consisted of a mixture of MEM and F12 nutrient mixture (both Gibco, 1:1; vol/vol) with glucose (33 mM), glutamine (2 mM) NaHCO3 (24.5 mM), HEPES (15 mM), supplemented with transferrin (100 μg/ml), insulin (25 μg/ml), putrescine (60 μM), progesterone (20 nM), sodium selenite (30 nM), penicillin G (5 U/ml) and streptomycin (5 μg/ml). The osmolarity of the DM was adjusted to 325 by the addition of milli-Q H2O. (110-125 ml H2O/l). […] All assays reached in the following examples were done in serum-containing medium.
The functional status of the dopaminergic neurons may be assayed in these cultures by measuring dopamine uptake through specific “scavenger” transporters in the dopaminergic neurons and by counting the number of neurons positive for the dopamine synthetic enzyme tyrosine hydroxylase using immunohistochemistry.

[2] = tested on: sympathetic neurons from chick embryo sympathetic chain ganglia; experiment: Neuronal survival assay (MTT), sympathetic chain ganglia; format: cell-based; conditions: for fold lower than refolded rhGDNF in sympathetic neuron survival bioassay / apparent ED50 in the sympathetic neuron survival bioassay: prior to refolding; for apparent ED50 in the sympathetic neuron survival bioassay: exposed to 30 mM 2-mercaptoethanol
Experimental: Cultures of primary check embryo ciliary ganglia and sympathetic chain ganglia were prepared as previously described (Collins 1978 Develop. Biol. 65:50; Manthorpe et al. 1986 Develop. Brain Res. 25:191). Briefly, ciliary or sympathetic ganglia were removed from fertile, pathogen free chicken eggs that had been incubated for 8 and 10 days, respectively, at 38° C. in a humidified atmosphere. The ganglia were chemically dissociated by exposure first to Hands' Balanced Salt Solution without divalent cations, containing 10 mM HEPES buffer pH 7.2 for 10 min at 37° C., and then by exposure to a solution of 0.125% bactotrypsin 1:250 (Difco, Detroit, Mich.) in Hanks' Balanced Salt Solution modified as above for 12 min at 37° C. Trypsinization was stopped by addition of fetal calf serum to a final concentration of 10%.
After this treatment, ganglia were transferred to a solution consisting of Dulbecco's high glucose Modified Eagle Medium without bicarbonate containing 10% fetal calf serum and 10 mM HEPES, pH 7.2 and were mechanially dissociated by trituration approximately 10 times through a glass Pasteur pipet whose opening had been fire polished and constricted to a diameter such that it took 2 seconds to fill the pipet.
The dissociated ganglia were then plated in culture medium (Dulbecco's Modified Eagle Medium supplemented with 10% fetal calf serum, 4 mM glutamine, 60 mg/L penicillin-G, 25 mM HEPES, pH 7.2) in 100 mm diameter tissue culture dishes (40 dissociated ganglia per dish) for three hours. […] After three hours, the nonadherent nerve cells were collection by centrifugation, resuspended in culture medium, and plated in 50 μl per well onto half area 96 well microtiter tissue culture plates at a density of 1500 nerve cells per well. The microtiter wells had been previously exposed to a 1 mg/ml solution of poly-L-ornithine in 10 mM sodium borate, pH 8.4 overnight at 4° C., washed in distilled water and air dried.
Ten μl of a serial dilution of the sample to be assayed for neurotrophic activity was added to each well and the dishes were incubated for 20 hours at 37° C. in a humidified atmosphere containing 7.5% CO2. After 18 hours for ciliary and 40 hours for sympathetic ganglia, 15 μl per well of a 1.5 mg/ml solution of the tetrasolium dye MTT in Dulbecco's high glucose Modified Eagle Medium without bicarbonate containing 10 mM HEPES, pH 7.2, was added and the cultures placed in the 37° C. incubator for 4 hours. Then, 75 μl of a solution of 6.7 ml of 12 M HCl per liter of isopropanol was added and the contents of each well triturated 30 times to break open the cells and suspend the dye. The absorbance of 570 nm was determined relative to a 690 nm reference for each well using an automatic microtiter plate reader (Dynatech, Chantilly, Va.). The absorbance of wells which had not received any neurotrophic agent (negative controls) was substracted from the absorbance of sample-containing wells. The resulting absorbance is proportional to the number of living cells in each well, defined as those nerve cells capable of reducing the dye. The number of trophic units of neurotrophic activity was defined as the reciprocal of the dilution that gave 50% of maximal survival of nerve cells. Specific activity was determined by dividing the number of trophic units by the amount of protein present in the sample.

B1: GDNF prior to refolding: E. coli-expressed human GDNF, exposed to 2-mercaptoethanol and purified by S- or Q-Sepharose, before refolding (protein, UniProt P39905 78-211, looked up)
Glial cell line-derived …: SPDKQMAVLPRRERNRQAAAANPENSRGKGRRGQRGKNRGCVLTAIHLNVTDLGLGYETKEELIFRYCSGSCDAAETTYDKILKNLSRNRRLVSDKVGQACCRPIAFDDDLSFLDDNLVYHILRKHSAKRCGCI
modifications: unrefolded, E. coli-expressed
bioactivity in dopamine uptake assay [1]: no detectable bioactivity
bioactivity in sympathetic neuron survival bioassay [2]: greatly reduced bioactivity

B2: 3. RP-HPLC: GDNF after first reverse-phase HPLC (protein, UniProt Q07731 78-211, looked up)
Glial cell line-derived …: SPDKQAAALPRRERNRQAAAASPENSRGKGRRGQRGKNRGCVLTAIHLNVTDLGLGYETKEELIFRYCSGSCEAAETMYDKILKNLSRSRRLTSDKVGQACCRPVAFDDDLSFLDDSLVYHILRKHSAKRCGCI
modifications: purification fraction
SP. ACT (specific activity, dopamine uptake trophic units per protein) [1]: 12,000 TU/μg
FOLD (specific activity relative to B49 conditioned medium) [1]: 24,000
BIOACTIVITY [1]: 12 TU × 10^−3

B3: 5. RP-HPLC: GDNF peak 3 after second reverse-phase HPLC (protein, UniProt Q07731 78-211, looked up)
Glial cell line-derived …: SPDKQAAALPRRERNRQAAAASPENSRGKGRRGQRGKNRGCVLTAIHLNVTDLGLGYETKEELIFRYCSGSCEAAETMYDKILKNLSRSRRLTSDKVGQACCRPVAFDDDLSFLDDSLVYHILRKHSAKRCGCI
modifications: purification fraction
notes: GDNF peak 3 after second reverse-phase HPLC
SP. ACT (specific activity, dopamine uptake trophic units per protein) [1]: 17,000 TU/μg
FOLD (specific activity relative to B49 conditioned medium) [1]: 34,000
BIOACTIVITY [1]: 5 TU × 10^−3

B4: S-Sepharose chromatographed material: unrefolded human GDNF TU extract partially purified on S-Sepharose (protein, UniProt P39905 78-211, looked up)
Glial cell line-derived …: SPDKQMAVLPRRERNRQAAAANPENSRGKGRRGQRGKNRGCVLTAIHLNVTDLGLGYETKEELIFRYCSGSCDAAETTYDKILKNLSRNRRLVSDKVGQACCRPIAFDDDLSFLDDNLVYHILRKHSAKRCGCI
modifications: unrefolded, partially purified
fold lower than refolded rhGDNF in sympathetic neuron survival bioassay [2]: about 333 fold
apparent ED50 in the sympathetic neuron survival bioassay [2]: about 1 μg/ml

B5: Q-Sepharose chromatographed material: unrefolded sulfonylated human GDNF extract partially purified on Q-Sepharose (protein, UniProt P39905 78-211, looked up)
Glial cell line-derived …: SPDKQMAVLPRRERNRQAAAANPENSRGKGRRGQRGKNRGCVLTAIHLNVTDLGLGYETKEELIFRYCSGSCDAAETTYDKILKNLSRNRRLVSDKVGQACCRPIAFDDDLSFLDDNLVYHILRKHSAKRCGCI
modifications: unrefolded, sulfonylated
fold lower than refolded rhGDNF in sympathetic neuron survival bioassay [2]: about 100 fold
apparent ED50 in the sympathetic neuron survival bioassay [2]: about 3 μg/ml

B6: 4. Preparative SDS-PAGE: GDNF eluted from preparative non-reducing SDS-PAGE (protein, UniProt Q07731 78-211, looked up)
Glial cell line-derived …: SPDKQAAALPRRERNRQAAAASPENSRGKGRRGQRGKNRGCVLTAIHLNVTDLGLGYETKEELIFRYCSGSCEAAETMYDKILKNLSRSRRLTSDKVGQACCRPVAFDDDLSFLDDSLVYHILRKHSAKRCGCI
modifications: purification fraction
BIOACTIVITY [1]: 7 TU × 10^−3

B7: refolded GDNF: recombinant mature human GDNF expressed in E. coli and refolded (protein)
chain: SNMPEDYPDQFDDVMDFIQATIKRLKRSPDKQMAVLPRRERNRQAAAANPENSRGKGRRGQRGKNRGCVLTAIHLNVTDLGLGYETKEELIFRYCSGSCDAAETTYDKILKNLSRNRRLVTDKVGQACCRPIAF
bioactivity in dopamine uptake assay [1]: fully active
ED50 for increasing dopamine uptake [1]: about 3 pg/ml
ED50 for increasing dopamine uptake ([1]; listed as rhGDNF): about 30 pg/ml
bioactivity in sympathetic neuron survival bioassay [2]: fully active
ED50 for sympathetic neuron survival ([2]; chick embryo (E10) sympathetic ganglia): about 3 ng/ml
